Starred links: 1 amine or outer side, 2 acyl side, 3 side chain; linkers in the order of their positions; H or OH if unused. Non-standard residues stand in square brackets, D forms with d. Groups on a side chain read outwards from the residue. No end group written: not given here. *: point of attachment. C20 diacid = O=C(O)CCCCCCCCCCCCCCCCCCC(=O)*; γGlu = O=C(O)[C@H](CCC(=O)[*:2])N[*:1]; αMeL = CC(C)C[C@](C)(N)C(=O)O; AEEA = NCCOCCOCC(=O)O; Aib = CC(C)(N)C(=O)O

The chains are these.
B1: Example 63 (peptide)
peptide: Y[Aib]EGTFISDYSI[αMeL]LDKK([AEEA-AEEA-γGlu-C20 diacid])HQ[Aib]EFVEYLLEQGPSSGAPPPS-NH2
modifications: N-terminus assumed
SMILES: CC[C@H](C)[C@H](NC(=O)[C@H](Cc1ccccc1)NC(=O)[C@@H](NC(=O)CNC(=O)[C@H](CCC(=O)O)NC(=O)C(C)(C)NC(=O)[C@@H](N)Cc1ccc(O)cc1)[C@@H](C)O)C(=O)N[C@@H](CO)C(=O)N[C@@H](CC(=O)O)C(=O)N[C@@H](Cc1ccc(O)cc1)C(=O)N[C@@H](CO)C(=O)N[C@H](C(=O)N[C@@](C)(CC(C)C)C(=O)N[C@@H](CC(C)C)C(=O)N[C@@H](CC(=O)O)C(=O)N[C@@H](CCCCN)C(=O)N[C@@H](CCCCNC(=O)COCCOCCNC(=O)COCCOCCNC(=O)CC[C@H](NC(=O)CCCCCCCCCCCCCCCCCCC(=O)O)C(=O)O)C(=O)N[C@@H](Cc1c[nH]cn1)C(=O)N[C@@H](CCC(N)=O)C(=O)NC(C)(C)C(=O)N[C@@H](CCC(=O)O)C(=O)N[C@@H](Cc1ccccc1)C(=O)N[C@H](C(=O)N[C@@H](CCC(=O)O)C(=O)N[C@@H](Cc1ccc(O)cc1)C(=O)N[C@@H](CC(C)C)C(=O)N[C@@H](CC(C)C)C(=O)N[C@@H](CCC(=O)O)C(=O)N[C@@H](CCC(N)=O)C(=O)NCC(=O)N1CCC[C@H]1C(=O)N[C@@H](CO)C(=O)N[C@@H](CO)C(=O)NCC(=O)N[C@@H](C)C(=O)N1CCC[C@H]1C(=O)N1CCC[C@H]1C(=O)N1CCC[C@H]1C(=O)N[C@@H](CO)C(N)=O)C(C)C)[C@@H](C)CC
B2: Example 66 (peptide)
peptide: Y[Aib]EGTFISDYSI[αMeL]LDKK([AEEA-AEEA-γGlu-C20 diacid])HQ[Aib]DFVEYLLETGPSSGAPPPS-NH2
modifications: N-terminus assumed
SMILES: CC[C@H](C)[C@H](NC(=O)[C@H](Cc1ccccc1)NC(=O)[C@@H](NC(=O)CNC(=O)[C@H](CCC(=O)O)NC(=O)C(C)(C)NC(=O)[C@@H](N)Cc1ccc(O)cc1)[C@@H](C)O)C(=O)N[C@@H](CO)C(=O)N[C@@H](CC(=O)O)C(=O)N[C@@H](Cc1ccc(O)cc1)C(=O)N[C@@H](CO)C(=O)N[C@H](C(=O)N[C@@](C)(CC(C)C)C(=O)N[C@@H](CC(C)C)C(=O)N[C@@H](CC(=O)O)C(=O)N[C@@H](CCCCN)C(=O)N[C@@H](CCCCNC(=O)COCCOCCNC(=O)COCCOCCNC(=O)CC[C@H](NC(=O)CCCCCCCCCCCCCCCCCCC(=O)O)C(=O)O)C(=O)N[C@@H](Cc1c[nH]cn1)C(=O)N[C@@H](CCC(N)=O)C(=O)NC(C)(C)C(=O)N[C@@H](CC(=O)O)C(=O)N[C@@H](Cc1ccccc1)C(=O)N[C@H](C(=O)N[C@@H](CCC(=O)O)C(=O)N[C@@H](Cc1ccc(O)cc1)C(=O)N[C@@H](CC(C)C)C(=O)N[C@@H](CC(C)C)C(=O)N[C@@H](CCC(=O)O)C(=O)N[C@H](C(=O)NCC(=O)N1CCC[C@H]1C(=O)N[C@@H](CO)C(=O)N[C@@H](CO)C(=O)NCC(=O)N[C@@H](C)C(=O)N1CCC[C@H]1C(=O)N1CCC[C@H]1C(=O)N1CCC[C@H]1C(=O)N[C@@H](CO)C(N)=O)[C@@H](C)O)C(C)C)[C@@H](C)CC
B3: Example 64 (peptide)
peptide: Y[Aib]EGTFISDYSI[αMeL]LDKK([AEEA-AEEA-γGlu-C20 diacid])HQ[Aib]EFVEYLLETGPSSGAPPPS-NH2
modifications: N-terminus assumed
SMILES: CC[C@H](C)[C@H](NC(=O)[C@H](Cc1ccccc1)NC(=O)[C@@H](NC(=O)CNC(=O)[C@H](CCC(=O)O)NC(=O)C(C)(C)NC(=O)[C@@H](N)Cc1ccc(O)cc1)[C@@H](C)O)C(=O)N[C@@H](CO)C(=O)N[C@@H](CC(=O)O)C(=O)N[C@@H](Cc1ccc(O)cc1)C(=O)N[C@@H](CO)C(=O)N[C@H](C(=O)N[C@@](C)(CC(C)C)C(=O)N[C@@H](CC(C)C)C(=O)N[C@@H](CC(=O)O)C(=O)N[C@@H](CCCCN)C(=O)N[C@@H](CCCCNC(=O)COCCOCCNC(=O)COCCOCCNC(=O)CC[C@H](NC(=O)CCCCCCCCCCCCCCCCCCC(=O)O)C(=O)O)C(=O)N[C@@H](Cc1c[nH]cn1)C(=O)N[C@@H](CCC(N)=O)C(=O)NC(C)(C)C(=O)N[C@@H](CCC(=O)O)C(=O)N[C@@H](Cc1ccccc1)C(=O)N[C@H](C(=O)N[C@@H](CCC(=O)O)C(=O)N[C@@H](Cc1ccc(O)cc1)C(=O)N[C@@H](CC(C)C)C(=O)N[C@@H](CC(C)C)C(=O)N[C@@H](CCC(=O)O)C(=O)N[C@H](C(=O)NCC(=O)N1CCC[C@H]1C(=O)N[C@@H](CO)C(=O)N[C@@H](CO)C(=O)NCC(=O)N[C@@H](C)C(=O)N1CCC[C@H]1C(=O)N1CCC[C@H]1C(=O)N1CCC[C@H]1C(=O)N[C@@H](CO)C(N)=O)[C@@H](C)O)C(C)C)[C@@H](C)CC
B4: Example 68 (peptide)
peptide: Y[Aib]EGTFISDYSI[αMeL]LDKK([AEEA-AEEA-γGlu-C20 diacid])HQ[Aib]DFVEYLLEAGPSSGAPPPS-NH2
modifications: N-terminus assumed
SMILES: CC[C@H](C)[C@H](NC(=O)[C@H](Cc1ccccc1)NC(=O)[C@@H](NC(=O)CNC(=O)[C@H](CCC(=O)O)NC(=O)C(C)(C)NC(=O)[C@@H](N)Cc1ccc(O)cc1)[C@@H](C)O)C(=O)N[C@@H](CO)C(=O)N[C@@H](CC(=O)O)C(=O)N[C@@H](Cc1ccc(O)cc1)C(=O)N[C@@H](CO)C(=O)N[C@H](C(=O)N[C@@](C)(CC(C)C)C(=O)N[C@@H](CC(C)C)C(=O)N[C@@H](CC(=O)O)C(=O)N[C@@H](CCCCN)C(=O)N[C@@H](CCCCNC(=O)COCCOCCNC(=O)COCCOCCNC(=O)CC[C@H](NC(=O)CCCCCCCCCCCCCCCCCCC(=O)O)C(=O)O)C(=O)N[C@@H](Cc1c[nH]cn1)C(=O)N[C@@H](CCC(N)=O)C(=O)NC(C)(C)C(=O)N[C@@H](CC(=O)O)C(=O)N[C@@H](Cc1ccccc1)C(=O)N[C@H](C(=O)N[C@@H](CCC(=O)O)C(=O)N[C@@H](Cc1ccc(O)cc1)C(=O)N[C@@H](CC(C)C)C(=O)N[C@@H](CC(C)C)C(=O)N[C@@H](CCC(=O)O)C(=O)N[C@@H](C)C(=O)NCC(=O)N1CCC[C@H]1C(=O)N[C@@H](CO)C(=O)N[C@@H](CO)C(=O)NCC(=O)N[C@@H](C)C(=O)N1CCC[C@H]1C(=O)N1CCC[C@H]1C(=O)N1CCC[C@H]1C(=O)N[C@@H](CO)C(N)=O)C(C)C)[C@@H](C)CC
B5: Example 65 (peptide)
peptide: Y[Aib]EGTFISDYSI[αMeL]LDKK([AEEA-AEEA-γGlu-C20 diacid])HQ[Aib]EFVEYLLEAGPSSGAPPPS-NH2
modifications: N-terminus assumed
SMILES: CC[C@H](C)[C@H](NC(=O)[C@H](Cc1ccccc1)NC(=O)[C@@H](NC(=O)CNC(=O)[C@H](CCC(=O)O)NC(=O)C(C)(C)NC(=O)[C@@H](N)Cc1ccc(O)cc1)[C@@H](C)O)C(=O)N[C@@H](CO)C(=O)N[C@@H](CC(=O)O)C(=O)N[C@@H](Cc1ccc(O)cc1)C(=O)N[C@@H](CO)C(=O)N[C@H](C(=O)N[C@@](C)(CC(C)C)C(=O)N[C@@H](CC(C)C)C(=O)N[C@@H](CC(=O)O)C(=O)N[C@@H](CCCCN)C(=O)N[C@@H](CCCCNC(=O)COCCOCCNC(=O)COCCOCCNC(=O)CC[C@H](NC(=O)CCCCCCCCCCCCCCCCCCC(=O)O)C(=O)O)C(=O)N[C@@H](Cc1c[nH]cn1)C(=O)N[C@@H](CCC(N)=O)C(=O)NC(C)(C)C(=O)N[C@@H](CCC(=O)O)C(=O)N[C@@H](Cc1ccccc1)C(=O)N[C@H](C(=O)N[C@@H](CCC(=O)O)C(=O)N[C@@H](Cc1ccc(O)cc1)C(=O)N[C@@H](CC(C)C)C(=O)N[C@@H](CC(C)C)C(=O)N[C@@H](CCC(=O)O)C(=O)N[C@@H](C)C(=O)NCC(=O)N1CCC[C@H]1C(=O)N[C@@H](CO)C(=O)N[C@@H](CO)C(=O)NCC(=O)N[C@@H](C)C(=O)N1CCC[C@H]1C(=O)N1CCC[C@H]1C(=O)N1CCC[C@H]1C(=O)N[C@@H](CO)C(N)=O)C(C)C)[C@@H](C)CC

One experiment deals with T1, human glucose-dependent insulinotropic polypeptide (GIP) receptor (human, UniProt P48546 22-466).
T1 construct: whole, on cells; Assayed as crude membranes of stably transfected CHO cells; also called hGIPR; human GIP receptor
T1 sequence (looked up): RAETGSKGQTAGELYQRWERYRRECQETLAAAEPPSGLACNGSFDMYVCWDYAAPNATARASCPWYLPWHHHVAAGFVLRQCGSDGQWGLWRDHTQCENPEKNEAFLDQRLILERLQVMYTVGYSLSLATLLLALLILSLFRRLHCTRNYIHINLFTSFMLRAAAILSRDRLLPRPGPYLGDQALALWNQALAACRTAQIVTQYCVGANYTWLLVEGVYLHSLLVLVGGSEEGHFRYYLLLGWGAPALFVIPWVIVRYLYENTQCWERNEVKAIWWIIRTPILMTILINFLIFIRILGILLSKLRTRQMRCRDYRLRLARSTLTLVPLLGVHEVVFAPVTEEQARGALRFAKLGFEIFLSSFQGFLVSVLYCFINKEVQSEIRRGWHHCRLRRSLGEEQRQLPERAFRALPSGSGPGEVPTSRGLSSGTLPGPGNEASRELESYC
Put plainly: SPA, displacement of [125I]-GIP from hGIPR membranes, 0.1% bacitracin.
With B1, the affinity, expressed as Ki, was 0.0248 nM.
As for B2, the Ki amounted to 0.0866 nM.
As to B3, the Ki turned out to be 0.022 nM.
Turning to B4, the affinity corresponds to a Ki of 0.0948 nM.
The same measure, in the same setting: under B5 stands 0.0316 nM.

The next experiment concerns the target T2, human GLP-1 receptor (human, UniProt P43220 24-463).
T2 construct: whole, on cells; Assayed as crude membranes of stably transfected HEK293 cells; also called hGLP1R; hGLP-1R
Put plainly: SPA, displacement of [125I]-GLP-1 from hGLP-1R membranes, 0.1% bacitracin. In a few lines: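 Binding buffer: 25 mM HEPES pH 7.4, 2.5 mM CaCl₂, 1 mM MgCl₂, 0.1% bacitracin, 0.003% Tween-20, protease inhibitors without EDTA. Four-parameter nonlinear regression; Kᵢ given as geometric mean ± SEM, n = independent replicates run on different days.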
For B1, the Ki was determined as 327 nM.
On the same count and under the same terms, the result for B2 reads 326 nM.
The same measure, in the same setting: under B3 stands 477 nM.
Still for that read-out and setting: the result for B4 reads 421 nM.
In turn, B5 came in with a Ki of 305 nM.

In the next experiment the target is T3, human glucagon receptor (human, UniProt P47871 26-477).
T3 construct: whole, on cells; Assayed as crude membranes of stably transfected HEK293 cells; also called hGcgR; GcgR
T3 sequence (P47871 26-477): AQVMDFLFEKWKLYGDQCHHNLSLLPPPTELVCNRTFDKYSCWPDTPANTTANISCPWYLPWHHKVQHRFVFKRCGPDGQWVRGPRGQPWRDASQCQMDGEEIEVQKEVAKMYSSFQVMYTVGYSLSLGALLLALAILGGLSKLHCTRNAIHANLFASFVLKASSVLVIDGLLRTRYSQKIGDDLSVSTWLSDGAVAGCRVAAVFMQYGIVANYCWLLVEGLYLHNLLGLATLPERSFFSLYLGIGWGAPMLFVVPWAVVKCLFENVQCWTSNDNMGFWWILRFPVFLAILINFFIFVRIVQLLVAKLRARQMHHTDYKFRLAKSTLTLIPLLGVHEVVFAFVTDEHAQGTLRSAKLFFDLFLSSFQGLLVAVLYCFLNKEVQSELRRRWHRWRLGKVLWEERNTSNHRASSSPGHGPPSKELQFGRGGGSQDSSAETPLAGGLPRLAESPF
In words: SPA, displacement of [125I]-Gcg from hGcgR membranes, 0.1% bacitracin. In a few lines:
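Binding buffer: 25 mM HEPES pH 7.4, 2.5 mM CaCl₂, 1 mM MgCl₂, 0.003% Tween-20, protease inhibitors without EDTA. Counted by scintillation after 12 h incubation/settling at room temperature. Four-parameter nonlinear fit; Kᵢ given as geometric mean ± SEM of independent replicates run on different days.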
With B1, the Ki came to 185 nM.
Consider B2, for which the Ki stood at 279 nM.
Same read-out and setting: under B3 stands 196 nM; under B4, 290 nM; under B5, 279 nM.

The values above are taken from patent publication US20210032299A1 (Eli Lilly, published 2021).
